Data as given in patent publication US20260209359A1 (NEXTERA, published 2026).

Experiments:
[1] = target: T1, HLA-A*02:01 loaded with MAGE-A8 homologue peptide, soluble biotinylated (human, UniProt P04439 25-299 at identity 0.94); P61769 21-119, biotinylated); experiment: pHLA phage capture ELISA
T1 construct: HLA monomer as for m1

[2] = target: T2, HLA-A*02:01 loaded with MAGE-A3 homologue peptide, soluble biotinylated (human, UniProt P04439 25-299 at identity 0.94); P61769 21-119, biotinylated); experiment: pHLA capture ELISA: biotinylated pHLA on neutravidin, scFv-phage, anti-M13 antibody detection [cont.) C]
T2 construct: HLA monomer as for m1

[3] = target: T3, HLA-A*02:01 loaded with MAGE-A12 homologue peptide, soluble biotinylated (human, UniProt P04439 25-299 at identity 0.94); P61769 21-119, biotinylated); experiment: as above
T3 construct: HLA monomer as for m1

[4] = target: T4, HLA-A*02:01 loaded with MAGE-A11 homologue peptide, soluble biotinylated (human, UniProt P04439 25-299 at identity 0.94); P61769 21-119, biotinylated); experiment: as above
T4 construct: HLA monomer as for m1

[5] = target: T5, HLA-A*02:01 loaded with MAGE-B2 homologue peptide, soluble biotinylated (human, UniProt P04439 25-299 at identity 0.94); P61769 21-119, biotinylated); experiment: as above
T5 construct: HLA monomer as for m1

[6] = target: T6, HLA-A*02:01 loaded with MAGE-A10 homologue peptide, soluble biotinylated (human, UniProt P04439 25-299 at identity 0.94); P61769 21-119, biotinylated); experiment: as above
T6 construct: HLA monomer as for m1

[7] = target: T7, HLA-A*02:01 loaded with MAGE-B4 homologue peptide, soluble biotinylated (human, UniProt P04439 25-299 at identity 0.94); P61769 21-119, biotinylated); experiment: as above
T7 construct: HLA monomer as for m1

[8] = target: T8, HLA-A*02:01 loaded with MAGE-A1 homologue peptide, soluble biotinylated (human, UniProt P04439 25-299 at identity 0.94); P61769 21-119, biotinylated); experiment: as above
T8 construct: HLA monomer as for m1

[9] = target: T9, HLA-A*02:01 loaded with MAGE-C2 homologue peptide, soluble biotinylated (human, UniProt P04439 25-299 at identity 0.94); P61769 21-119, biotinylated); experiment: as above
T9 construct: HLA monomer as for m1

[10] = target: T10, HLA-A*02:01 loaded with MAGE-A2 homologue peptide, soluble biotinylated (human, UniProt P04439 25-299 at identity 0.94); P61769 21-119, biotinylated); experiment: as above
T10 construct: HLA monomer as for m1

[11] = target: T11, HLA-A*02:01 loaded with MAGE-B6 homologue peptide, soluble biotinylated (human, UniProt P04439 25-299 at identity 0.94); P61769 21-119, biotinylated); experiment: as above
T11 construct: HLA monomer as for m1

[12] = target: T12, HLA-A*02:01 loaded with MAGE-A9 homologue peptide, soluble biotinylated (human, UniProt P04439 25-299 at identity 0.94); P61769 21-119, biotinylated); experiment: as above
T12 construct: HLA monomer as for m1

[13] = target: T13, HLA-A*02:01 loaded with MAGE-B10 homologue peptide, soluble biotinylated (human, UniProt P04439 25-299 at identity 0.94); P61769 21-119, biotinylated); experiment: as above
T13 construct: HLA monomer as for m1

[14] = target: T14, HLA-A*02:01/MAGE-A4^230-239, soluble recombinant biotinylated pHLA (human, UniProt P04439 25-299 at identity 0.94); P61769 21-119, biotinylated); experiment: ELISA, biotinylated pHLA on neutravidin, protL-HRP
T14 construct: Empty biotinylated HLA-A2 monomers (Tetramer Shop) loaded with synthetic peptide; also called MAGE-A4 pMHC; MAGE-A4-pHLA
Procedure: Dotted lines indicate the EC₅₀ value (concentration at which half of maximal binding signal is achieved).
Assay 1 described above was performed. ELISA plates were coated with 5 μg/mL NeutrAvidin in PBS and incubated 16 h/4° C. (step (a)) and blocked with 5% skim milk powder in PBST for 1 h/room temperature (RT) (step (c)). […] Bound phage particles were detected with an anti-Fd antibody (anti-M13-HRP (Amersham Biosciences)), whereas bound IgG1 and scDb was detected with HRP conjugated protein L (Genscript) (step (i)). […] Plates were developed with TMB solution and read at 450 nm using a microplate reader (step (k)). Between each layer, the plates were washed 3× with PBST (steps (b), (d), (f), (h), and (j)).

[15] = target: T14, HLA-A*02:01/MAGE-A4^230-239, soluble …; experiment: SPR, biotinylated pHLA on neutravidin chip, Fab injected (Assay 6-1); Fab, not scDb
[16] = target: T14, HLA-A*02:01/MAGE-A4^230-239, soluble …; experiment: SPR, biotinylated pHLA on neutravidin chip, scDb without His-tag injected (Assay 6-2)
[17] = target: T14, HLA-A*02:01/MAGE-A4^230-239, soluble …; experiment: ELISA, soluble biotinylated pHLA on neutravidin, scDb, protL-HRP
Procedure: ELISA plates were coated with 5 μg/mL NeutrAvidin in PBS and incubated 16 h/4° C. (step (a)) and blocked with 5% skim milk powder in PBST for 1 h/room temperature (RT) (step (c)). […] Bound phage particles were detected with an anti-Fd antibody (anti-M13-HRP (Amersham Biosciences)), whereas bound IgG1 and scDb was detected with HRP conjugated protein L (Genscript) (step (i)). […] Plates were developed with TMB solution and read at 450 nm using a microplate reader (step (k)). Between each layer, the plates were washed 3× with PBST (steps (b), (d), (f), (h), and (j)).

[18] = target: T15, HLA-A*02:01/MAGE-A4^230-239 displayed on cells (MAGE-A4^230-239 pulsed T2 cells; NCI-H1703, A375, THP1, … (human, UniProt P04439 25-365 at identity 0.94); P61769 21-119); experiment: cell-based or functional assay
[19] = target: T15, HLA-A*02:01/MAGE-A4^230-239 displayed …; experiment: cell-based or functional assay; remark: listed apart in the source

B1: AM2 scFv displayed on phage (scFv)
scFv: QVQLVQSGAEVKKPGASVKVSCKVSGYTLTELSMHWVRQAPGKGLEWMGGFDPEDGETIYAQKFQGRVTMTEDTSTDTAYMELSSLRSEDTAVYYCATDQGSSWGFYWGQGTLVTVSSKLSGSASAPKLEEGEFSEARVDIRVTQSPSSLSASVGDRVTITCRASQNIMWYLNWYQQKPGKAPKLLIYAASSLQSGVPSRFSGSGSGTDFTLTISSLQPEDFATYYCQQSYSTPYTFGQGTKLEIK
notes: scFv on the surface of phage particles; also called AM2 phages
[1]
  fold reduction of binding as compared to binding to HLA-A*02:01/MAGE-A4^230-239: ≥ 2 fold
[2]
  binding result: no binding (tested: 10^9 phages/well)
[3]
  binding result: no binding (tested: 10^9 phages/well)
[4]
  binding result: no binding (tested: 10^9 phages/well)
[5]
  binding result: no binding (tested: 10^9 phages/well)
[6]
  binding result: no binding (tested: 10^9 phages/well)
[7]
  binding result: no binding (tested: 10^9 phages/well)
[8]
  binding result: no binding (tested: 10^9 phages/well)
[9]
  binding result: no binding (tested: 10^9 phages/well)
[10]
  binding result: no binding (tested: 10^9 phages/well)
[11]
  binding result: no binding (tested: 10^9 phages/well)
[12]
  binding result: no binding (tested: 10^9 phages/well)
[13]
  binding result: no binding (tested: 10^9 phages/well)

B2: 1-H02 full length human IgG1 (antibody, V domains shown)
VH: QVQLVQSGAEVKKPGASVKVSCKVSGYTLTELSMHWVRQAPGKGLEWMGGFDPEDGETIYAQKFQGRVTMTEDTSTDTAYMELSSLRSEDTAVYYCATDQGSSWGFYWGQGTLVTVSS
VL: not shown
notes: also called 1-H02 hIgG1; 1-H02 IgG
[14]
  EC50: 1.1 nM

B3: 1-H02 Fab (Fab, V domains shown)
VH: B2 VH
VL: not shown
notes: Fab format
[15]
  Kd: 1410 nM

B4: AM17 scDb (bispecific antibody)
chain: DIRLTQSPSSLSASVGDRVTMTCRASQTVATYVNWYQQKPGRAPKLLMYVTSIRQSEVPSRFSGDGFGTDFTLTINPLQPDDFATYYCQQAYSTPVTFGQGTKLEIKGGGGSEVQLQQSGPELVKPGASMKISCKASGYSFTGYTMNWVKQSHGKNLEWMGLINPYKGVSTYNQKFKDKATLTVDKSSSTAYMELLSLTSEDSAVYYCARSGYYGDSDWYFDVWGAGTTVTVSSGGGGSGGGGSGGGGSDIQMTQTTSSLSASLGDRVTISCRASQDIRNYLNWYQQKPDGTVKLLIYYTSRLHSGVPSKFSGSGSGTDYSLTISNLEQEDIATYFCQQGNTLPWTFAGGTKLEIKGGGGSQVQLVQSGAEVKKPGASVKVSCKVSGYTLTELSMHWVRQAPGKGLEWMGGFDPEDGETIYAQKFQGRVTMTEDTSTDTAYMELSSLRSEDTAVYYCATDQGSSWGFYWGQGTLVTVSS
notes: as m68; without a His-tag in the SPR assay
[16]
  Kd: 10.8 nM
[17]
  EC50: 0.3 nM
[18]
  EC50 vs. NCI-H1703 (pM), T-cell specific killing: 2.9 pM
[19]
  IFNγ EC50 vs. target positive cells (pM): 10.9 pM

B5: AM14 scDb (bispecific antibody)
chain: DIQLTQSPSSLSASVGDRVTITCRADIDIRWYLNWYQQKPGKAPKLLIYAASGLQSGVPSRFSGSGSGTDFTLTISSLQPEDFATYYCQQSYSTPFTFGPGTKVDIKGGGGSEVQLQQSGPELVKPGASMKISCKASGYSFTGYTMNWVKQSHGKNLEWMGLINPYKGVSTYNQKFKDKATLTVDKSSSTAYMELLSLTSEDSAVYYCARSGYYGDSDWYFDVWGAGTTVTVSSGGGGSGGGGSGGGGSDIQMTQTTSSLSASLGDRVTISCRASQDIRNYLNWYQQKPDGTVKLLIYYTSRLHSGVPSKFSGSGSGTDYSLTISNLEQEDIATYFCQQGNTLPWTFAGGTKLEIKGGGGSQVQLVQSGAEVKKPGASVKVSCKVSGYTLTELSMHWVRQAPGKGLEWMGGFDPEDGETIYAQKFQGRVTMTEDTSTDTAYMELSSLRSEDTAVYYCATDQGSSWGFYWGQGTLVTVSS
notes: as for B4
[16]
  Kd: 0.44 nM
[17]
  EC50: 0.1 nM
[18]
  EC50 vs. NCI-H1703 (pM), T-cell specific killing: 5.1 pM
[19]
  IFNγ EC50 vs. target positive cells (pM): 4.1 pM
